Experimental data from doi:10.1101/2024.10.06.616851.

Biological target: intracellular (IC) wildtype penton of ASFV, HA-tagged (African swine fever virus (ASFV) Georgia 2007/1) (UniProt Q65190)
Assay: non-reducing SDS-PAGE with Western blot

Substance “intracellular (IC) wildtype penton of ASFV, HA-tagged (from UniProt Q65190 1-240) (natural protein)” has a percent pentamer of 30% and a stoichiometry N of 5.
